Measurements: the supplement of paper PMC10724198
± gives the standard deviation of the averaged measurements.

Columns and labels:
[1] = system: Saccharomyces cerevisiae; experiment: protein stability index of tFT-peptide fusion (C-terminal peptide) (PSI (0-1 scale)); higher = more stable (slower turnover)
Procedure: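 MPS profiling in S. cerevisiae of the tFT-X12 degron library: putative degron peptides plus stable controls, 12 aa, fused to the C-terminus of a sfGFP-mCherry timer. Cells are FACS-sorted into 8 mCherry/sfGFP bins and deep-sequenced. PSI runs from 0 (unstable) to 1 (stable). Backgrounds are wild type, das1Δ and doa10Δ at 30 °C, and wild type, das1Δ, cdc34-1 and cdc53-1 at 37 °C; 2-3 technical replicates each.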

[2] = system: Saccharomyces cerevisiae; experiment: as above; settings: genetic background: wild type; temperature: 30 C
[3] = genetic background: cdc34-1, temperature: 37 C
[4] = genetic background: cdc53-1, temperature: 37 C
[5] = genetic background: das1 deletion, temperature: 30 C
[6] = genetic background: das1 deletion, temperature: 37 C
[7] = genetic background: doa10 deletion, temperature: 30 C
[8] = genetic background: wild type, temperature: 30 C
[9] = genetic background: wild type, temperature: 37 C
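Also: PSI is a weighted mean of sequencing reads over stability bins, variants kept only with over 10 reads, mCherry proximal and sfGFP distal, peptide attached via GGGS linker.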

Sequence | protein stability index [1, 3] | protein stability index [1, 4] | protein stability index [1, 5] | protein stability index [1, 6] | protein stability index [1, 7] | protein stability index [1, 8] | protein stability index [1, 9] | protein stability index [2]
RAPPPSSLLSPP | 0.6612 ± 0.0063 | 0.724 ± 0.016 | 0.6499 ± 0.0057 | 0.718 ± 0.027 | 0.687 ± 0.0087 | 0.671 ± 0.029 | 0.706 ± 0.037 | 0.402 ± 0.013
RARRFGKWERSG | 0.644 ± 0.032 | 0.761 ± 0.025 | 0.639 ± 0.013 | 0.731 ± 0.024 | 0.33 ± 0.03 | 0.377 ± 0.03 | 0.544 ± 0.0099 | 0.4453 ± 0.0039
RDPLAPLLLAIP | 0.65 ± 0.038 | 0.717 ± 0.015 | 0.587 ± 0.011 | 0.7006 ± 0.0047 | 0.596 ± 0.04 | 0.609 ± 0.013 | 0.6816 ± 0.0035 | 0.698 ± 0.01
RDYIAAKLVVCG | 0.4103 ± 0.0032 | 0.425 ± 0.029 | 0.304 ± 0.03 | 0.488 ± 0.0021 | 0.267 ± 0.0034 | 0.318 ± 0.027 | 0.4612 ± 0.0016 | 0.35 ± 0.091
REAFVVLAVFFH | 0.199 ± 0.0062 | 0.321 ± 0.054 | 0.226 ± 0.019 | 0.406 ± 0.02 | 0.193 ± 0.0039 | 0.199 ± 0.03 | 0.315 ± 0.05 | 0.328 ± 0.04
RFCLPLRLPVTT | 0.533 ± 0.028 | 0.5626 ± 0.0042 | 0.461 ± 0.037 | 0.5865 ± 0.0022 | 0.439 ± 0.0083 | 0.458 ± 0.016 | 0.589 ± 0.045 | 0.4497 ± 0.0012
RFFVLSFFFLVS | 0.215 ± 0.013 | 0.335 ± 0.069 | 0.224 ± 0.023 | 0.416 ± 0.014 | 0.209 ± 0.01 | 0.212 ± 0.029 | 0.384 ± 0.0071 | 0.282 ± 0.024
RFGLPLLVVTWL | 0.445 ± 0.0073 | 0.46 ± 0.0074 | 0.394 ± 0.028 | 0.5314 ± 0.005 | 0.4591 ± 0.0032 | 0.402 ± 0.0044 | 0.512 ± 0.011 | 0.468 ± 0.043
RFHTFVFCLLCL | 0.407 ± 0.062 | 0.438 ± 0.018 | 0.432 ± 0.02 | 0.516 ± 0.026 | 0.2796 ± 0.00049 | 0.277 ± 0.015 | 0.386 ± 0.015 | 0.328 ± 0.06
RFLFYSFPIHTL | 0.442 ± 0.061 | 0.6164 ± 0.0028 | 0.572 ± 0.039 | 0.67 ± 0.043 | 0.0683 ± 0.0092 | 0.0745 ± 0.019 | 0.105 ± 0.033 | 0.128 ± 0.0043
RFVLVFLVSLII | 0.376 ± 0.039 | 0.501 ± 0.0079 | 0.399 ± 0.029 | 0.541 ± 0.042 | 0.364 ± 0.016 | 0.397 ± 0.016 | 0.48 ± 0.019 | 0.435 ± 0.035
RGLANLIVIVSS | 0.572 ± 0.04 | 0.602 ± 0.0069 | 0.397 ± 0.022 | 0.603 ± 0.015 | 0.186 ± 0.012 | 0.228 ± 0.027 | 0.392 ± 0.011 | 0.374 ± 0.013
RGSLYLILVLIG | 0.194 ± 0.0058 | 0.349 ± 0.087 | 0.215 ± 0.024 | 0.4035 ± 0.00092 | 0.118 ± 0.033 | 0.163 ± 0.03 | 0.268 ± 0.021 | 0.269 ± 0.026
RHTVFFCQLLLV | 0.291 ± 0.0074 | 0.368 ± 0.0077 | 0.307 ± 0.012 | 0.43923 ± 3.7e-05 | 0.175 ± 0.024 | 0.185 ± 0.026 | 0.277 ± 0.046 | 0.238 ± 0.003
RKNSQKILKLSG | 0.6945 ± 0.0068 | 0.7724 ± 0.0073 | 0.64 ± 0.042 | 0.739 ± 0.024 | 0.256 ± 0.013 | 0.317 ± 0.019 | 0.576 ± 0.029 | 0.502 ± 0.15
RKQLSCIMIWCK | 0.361 ± 0.013 | 0.405 ± 0.012 | 0.204 ± 0.027 | 0.431 ± 0.0082 | 0.188 ± 0.0052 | 0.204 ± 0.015 | 0.40377 ± 0.00039 | 0.298 ± 0.011
RLFLLIECSSGF | 0.451 ± 0.005 | 0.491 ± 0.0068 | 0.31 ± 0.046 | 0.493 ± 0.024 | 0.271 ± 0.0039 | 0.293 ± 0.035 | 0.508 ± 0.019 | 0.395 ± 0.045
RLGSLVPLAKQL | 0.643 ± 0.11 | 0.745 ± 0.03 | 0.6729 ± 0.0062 | 0.737 ± 0.023 | 0.319 ± 0.0077 | 0.289 ± 0.023 | 0.413 ± 0.04 | 0.444 ± 0.059
RLILAIVVSGGL | 0.4098 ± 0.0018 | 0.425 ± 0.033 | 0.295 ± 0.034 | 0.495 ± 0.0071 | 0.252 ± 0.015 | 0.305 ± 0.022 | 0.457 ± 0.03 | 0.389 ± 0.0071
RLVGVRWEVCNL | 0.91 ± 0.041 | 0.902 ± 0.024 | 0.78 ± 0.041 | 0.86371 ± 0.00039 | 0.771 ± 0.022 | 0.772 ± 0.014 | 0.863 ± 0.019 | 0.744 ± 0.015
